± gives the uncertainty stated by the source.

A short description of this data set: amyloid nucleation score (Sup35N fusion, yeast selection) (log enrichment); library NNK1; higher = more nucleation; inactive = no reads after selection. Put shortly:
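Output and input plasmid inserts were sequenced by Illumina after psi-negative yeast carrying Sup35N fused to peptides of 20 random codons had been induced 24 hours with 100 μM copper sulfate and grown 7 days at 30°C on medium lacking adenine and uracil. The nucleation score is the DiMSum log enrichment of output over input reads, centred on the mode score of non-aggregating sequences. Sequences with under 100 input reads were excluded.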
In the case of WHFSMFREWRSS, the amyloid nucleation score was -0.649 ± 0.73. The figure for WHRRLGNMFKIASRTELRMG is -0.672 ± 1.1; for WHRSIWR it is 0.753 ± 0.56. In the case of WHSIADLNLVDYEICVNFFY it was -0.75 ± 1.5; in that of WIFSAMVYDSRKLTSYDKSE, 0.543 ± 0.32; in that of WIFTREQAFFSDRCLAASSK, 0.649 ± 0.76.

The substance WILPNNRMVFVLYTEQWWTF came in with an amyloid nucleation score of 2.33 ± 0.11. The entry for WIMRS is “inactive”; for WKCLRYPY it is “inactive”; for WKNLGQV it is -0.327 ± 0.39. The substance WKVVCNVPVVWFFLKRLHLL yielded an amyloid nucleation score of 0.498 ± 0.38. In the case of WLFSPNVFVNFCFG it was 6.913 ± 0.055; in that of WLNRMFFGDLCDMAIWKMCM, -0.217 ± 0.72. In the case of WLSMANHLIISCGSCRFRAF it was 0.973 ± 0.44; in that of WLVHIHRTSSISYILCLDLG, “inactive”; in that of WLVLHTNLMLGCSTRSMLCA, 0.174 ± 0.5. In the case of WLVVFVDSVYARRWCELKFL it was 0.39 ± 0.36; in that of WLWSQLVESCGRVRCSGGSG, 1.37 ± 0.5. For WLYMRGPKVVRSCREITARA, the amyloid nucleation score was 0.413 ± 1.4. In the case of WMFIFRLTSTLYYHCC it was “inactive”; in that of WMKVARMYRMESRIMNRRQW, 1.13 ± 0.84. The figure for WMRKVIPTNGTVDIETSS is 0.438 ± 0.33; for WMSLIGKNMRMIMVIKKWAL it is “inactive”. The figure for WNDYAHILLKKRGGRYNLAG is -0.907 ± 0.74. As to WNEADWHMCH, the amyloid nucleation score was 1.34 ± 0.38. The figure for WNELCHQLNWCICRVAGFVK is -0.637 ± 0.62.

In the case of WNGLYRFCVVRAQGSFDET, the amyloid nucleation score was -0.111 ± 0.32.

The substance WNQADGIS gave an amyloid nucleation score of -1.66 ± 2.4. In the case of WPDISCPPCNGDRMTVKWHV it was 0.836 ± 0.97; in that of WPIRVMMGYRLLGMDRNVFG, 0.129 ± 0.68. The figure for WPNTPSVTKWTYLFVLHPRM is -0.854 ± 0.95; for WQHFLFCKKKRVESCNVSTN it is 1.02 ± 0.76. In the case of WQVNVLIIMCGSFLLVFDFQ it was 0.359 ± 0.45. In the case of WRGISVQAVRRLCAKNKSSR, the amyloid nucleation score was 1.25 ± 0.85. The figure for WRHATSEMCFEGMLKCKVVT is 0.903 ± 0.57; for WRLLCSITMDWF it is -0.15 ± 0.22; for WRQYIDRNYVSCSASMLAWE it is 0.583 ± 0.43. Substance WRVSVKVVSAELEGMRNFAV yielded an amyloid nucleation score of 0.259 ± 0.49. The figure for WSGFQCSQDEWNLSMTIVRA is -0.097 ± 0.78. The figure for WSKHLAYIVYDVQ is -0.325 ± 1. In the case of WSKYVESVRVETVGQVFQLV it was -0.009 ± 0.51. As to WSNADEFGPD, the amyloid nucleation score is -0.256 ± 0.51. The figure for WSNGF is 1.89 ± 0.45; for WSRAVVFMSIHFRNGLMQ it is -0.444 ± 0.64. As for WSRHELWWVPCCDRMLVLGH, the amyloid nucleation score turned out to be 0.746 ± 0.9. WSRYNSPCSKSMRYRSVSEA yielded an amyloid nucleation score of -1.37 ± 1.1. In the case of WTAFGRFAVQTFFEKHM it was -0.275 ± 0.24. The figure for WTLQMLAYWYLTFFFPSFVY is 0.169 ± 0.37; for WTMLDMFLFS it is -0.872 ± 0.42; for WTRCHK it is -0.297 ± 0.35. In the case of WTRIDSSVYARKGFCAPRLP it was 0.021 ± 1.1; in that of WTVLGYFRALQASLRASAGM, 0.099 ± 0.71; in that of WVCLNYYWGCVRRTTRVFCL, -0.198 ± 0.52.

Take WVFEPMEWFDYKFSYHF: the amyloid nucleation score was -0.255 ± 0.42. The figure for WVGFGDVKSVTVMLYAPAWT is 5.04 ± 0.094; for WVGLSFDDIKIYSASSN it is 0.308 ± 0.52; for WVINFVGKTCDTIDP it is “inactive”. The substance WVRGSYPPDAHR registered an amyloid nucleation score of 1.86 ± 0.29. In the case of WVVLFLLWNGWVDWHIRTEQ it was -0.128 ± 0.36. WVWKTNWWYTRRIASLWDSR showed an amyloid nucleation score of 1.7 ± 0.56. WVYHRQKSCAIFRAEIM came in with an amyloid nucleation score of -0.088 ± 0.48. In the case of WWDAEFGGKSRAS it was -0.012 ± 0.57. WYAFERFDFHLCVDVVQLTR gave an amyloid nucleation score of 1.11 ± 0.94. In the case of WYHFVSGAVPHGSNEPKEFN it was -1 ± 0.9; in that of WYSVKESLGSPSLPSQFLST, “inactive”; in that of WYVLCYGPRFFYMSRLS, -0.411 ± 0.3.

As to YAAGGIRKSVGSTVRSPWGA, the amyloid nucleation score is 0.903 ± 0.84. YACQQ yielded an amyloid nucleation score of 0.314 ± 0.62.

The substance YAFLSEYFSAK came in with an amyloid nucleation score of -0.054 ± 0.24. The figure for YAFRSRHRSFSFIGTLMVFD is 0.55 ± 0.5; for YAGVRLWRRVWRAKTACSVA it is 0.169 ± 0.56; for YAKVSAIERRCWVMSVTYPD it is 0.171 ± 0.28.

The substance YALKLSMDVGLYLLFEGDRD registered an amyloid nucleation score of -1.36 ± 1.9.

On to YASCCTDCNWLCFFRRLREA, for which the amyloid nucleation score came out at 7.041 ± 0.054. The figure for YASVIVTQHRTMICRQTLCR is 1.46 ± 0.51; for YASVVGYLPGCTNINAMKNR it is “inactive”; for YCASFRINVIFV it is 3.79 ± 0.086.

As for YCCSCASCGPGVNRSWGN, the amyloid nucleation score was 1.57 ± 0.16. Regarding YCKFMLMGNHCFDLFCYSLN, the amyloid nucleation score amounted to 3.96 ± 0.09. As for YCLCCHLLKT, the amyloid nucleation score entry was “inactive”.

With YCQCVCFSAMYSKTSRLNMG, the amyloid nucleation score was 6.744 ± 0.066. The figure for YCQQT is -1.28 ± 0.64; for YCTLFGSWPLIVVVGG it is -0.772 ± 0.77. The figure for YCVQFVRLMLKKNGRGYNYR is -0.762 ± 1.1; for YDAIYV it is 0.368 ± 0.63.

YDILNGQAHDCYETMVKGWG came in with an amyloid nucleation score of -0.372 ± 0.47. The figure for YEGELTSKKFFAQVNSRVGG is -0.581 ± 1.4. The figure for YERGNFCWTIILRFLEF is -1.22 ± 0.78; for YFAYQDILVNDTIRIL it is 0.063 ± 0.56.

Regarding YFCQWH, the amyloid nucleation score entry was “inactive”. YFEWFVYLYSSRVFFLMLGR displayed an amyloid nucleation score of -0.038 ± 0.62.

Turning to YFFITRAEVSDVVLLLCVCC, the amyloid nucleation score is -0.158 ± 0.82. In the case of YFIPEFSTCVMWRSNNTGKY it was -0.211 ± 1.2; in that of YFLFFFHVDCLRNASC, -1.25 ± 2.7; in that of YFLLACLNVS, 0.828 ± 0.26. In the case of YFLTHRTGRYNMGDSSVRTL it was -0.319 ± 0.38; in that of YFQQEVQFEWGCVWREWCDC, 0.197 ± 0.52. YFSFLDNGGMPYVVVDYGLC registered an amyloid nucleation score of 0.042 ± 0.85.

YFSLSVIREVCFFVPWKLRS had an amyloid nucleation score of 0.14 ± 0.43. In the case of YFSYSLQKTAARRGVVMFTQ it was -0.378 ± 1.4. The figure for YFVMITCFYVILL is -0.126 ± 0.2. The figure for YFVQGNMNLSHCTCWCGNRT is 7.589 ± 0.046.
